Legend:
PDLP5 = experiment: RT-PCR of PDLP5 transcript in roots after hormone treatment; type: in vivo, Arabidopsis thaliana; conditions: nine-day-old seedlings, 4 hours; 100 μM SA, 5 μM NAA
Description: Relative band intensity was quantified with Image-J and standardized against ubiquitin. Concentrations: 100 μM salicylic acid (SA), 5 μM napthalene acetic acid (NAA). Three biological and two technical repeats were performed.
(§1) To further test that PDLP5pro responds to auxin, we treated 7-day-old PDLP5pro:GUS seedlings with the auxin analog 1-napthalene acetic acid (NAA). […] However, whereas DR5:GUS staining was intensified at the root meristem, exogenous auxin-induced PDLP5pro:GUS expression was again completely excluded from the root tip (FIG. 24).

PDLP5pro:GUS = experiment: Hormone treatment of PDLP5pro:GUS seedlings, GUS staining of roots; type: in vivo, Arabidopsis thaliana; conditions: 7-day-old seedlings, 9 hours; NAA 100 nM, SA 100 μM, JA 50 μM, ABA 10 μM, 6-BAP 1 μM
Description: (A) GUS staining of napthalene acetic acid (NAA)-treated roots. Images are tiled and manually aligned. Scale bars, 50 μm. (B) Model for the possible role of PDLP5 during lateral root (LR) emergence. In the wild type (WT) plant, auxin-triggered PDLP5 limits excess diffusion of auxin through PD. This helps regulate the expression timing of genes encoding LAX3 and CWR enzymes in the cortex that positively influence LR emergence. In the plant having a severe knock-down in PDLP5 (pdlp5-1), auxin can diffuse through PD into cortical (and later, epidermal) cells earlier than it should. En, endodermis; Co, cortex; Ep, epidermis This expedites the expression of emergence-promoting genes, accelerating LR emergence.
Concentrations: salicylic acid (SA), 100 μM; JA, 50 μM; ABA, 10 μM; 6-BAP, 1 μM. n=10 per treatment for each line. Representative images are shown. Scale bar, 100 μm.
as §1
GUS solution (100 mM sodium phosphate buffer, pH 7.0, 10 mM EDTA, 0.5 mM each potassium ferrocyanide and potassium ferricyanide, 1.24 mM X-Gluc, and 0.1% Triton X-100) was vacuum-infiltrated into plant tissue for five minutes, then removed from vacuum and incubated in 37° C. for 3 to 12 hrs, followed by a series of ethanol washes. Stained tissues were imaged using Zeiss Axioskop 2 microscope. LRP were quantified by counting both the emerged LR and unemerged LR, as determined by DRS::GUS staining of the primordia, under a dissecting microscope (1.2× magnification). LRP stages were determined by examining ethanol-cleared, GUS-stained tissue using 40× water lens.

Arabidopsis thaliana [1] = experiment: Exposure to cold conditions (chilling); type: in vivo; conditions: relative to wild type plants and plants overexpressing PDLP5; 7 weeks at 5° C.
Description: Plants were grown to 2 weeks post germination at 20° C. followed by 7 weeks of culture at 5° C. with 16/8 hours light/darkness.

Arabidopsis thaliana [2] = experiment: Drought test: 2 weeks water withdrawal, then rewatering; type: in vivo
Description: All plant lines were grown for 2 weeks with water prior to the 2 week water withdrawal. (a) Plants having a severe knock down of PDLP5 (pdlp5-1) and PDLP5-m5 plants bolt faster than plants overexpressing PDLP5 (OX) and wild type (WT) plants. (b) Plants overexpressing PDLP5 (OX) revive 3 days post rewatering (DPR). (c) Plants overexpressing PDLP5 (OX) fully recover and 10 days post rewatering (DPR); wild type (WT) plants are dead, and PDLP5-m5 plants continue to survive.
(a) Plants overexpressing PDLP5 (OX), wild type (WT) plants, plants having a severe knock down of PDLP5 (pdlp5-1), and three different PDLP5-m5 plants (T3-4-2, T2-6, and T2-26) which were all grown a different number of days as required to reach same rosette size before water withdrawal. Plants having the same rosette size are referred to as “same day bolting samples.” (b) Same day bolting samples of plants overexpressing PDLP5 (OX), wild type (WT) plants, plants having a severe knock down of PDLP5 (pdlp5-1), and three different PDLP5-m5 plants (T3-4-2, T2-6, and T2-26) at the end of a 2 week water withdrawal. (c) Same day bolting samples of plants overexpressing PDLP5 (OX) and two different PDLP5-m5 plants (T3-4-2 and T2-26) recover fully 3 days post rewatering.
Transgenic T1 plants were selected on basta+plates and homozygous T2 lines were identified by segregation test on T3 plants. For the drought test, homozygous lines were grown in soil for the 2 weeks with watering followed by 2 weeks of water withdrawal. Tolerance to drought stress of the PDLP5-m5 was assessed by the plant growth or death upon resuming watering.
PDLP5-m5 plants were evaluated by exposing them to drought conditions. PDLP-m5 plants were grown under normal conditions with water, water was withdrawn for 2 weeks, and rewatering was commenced. Plants having a severe knock down of PDLP5 (pdlp5-1) and PDLP5-m5 plants bolt faster than plants overexpressing PDLP5 and wild type plants (FIG. 13A). […] The early bolting of the PDLP5-m5 plants appeared to affect plant revival. Therefore, the experiment was repeated using same day bolting samples. Briefly, plants having the same rosette size were used, regardless of the number of days required to achieve that rosette size (FIG. 14A).

Arabidopsis thaliana [3] = experiment: Vegetative growth, flowering and seed yield of plants; type: in vivo
Description: Wild type (WT) plants, plants overexpressing […]), and plants with a severe knock down of […] used as comparisons. (a) Whole plants at 10, 14, and 18 days post germination (dpg). Plants were grown at 22-20° C. with 50% humidity and with 16/8 hours light/darkness. (b) Leaves at 3 weeks post germination. Plants were grown at 24-22° C. with 70% humidity and with 16/8 hours light/darkness. […] Wild type (WT) plants, plants overexpressing PDLP5 (OX), and plants with a severe knock down of PDLP5 (KO) were used as comparisons. […] Seeds were germinated on plates, were transferred to soil after 1 week, and plants were grown at 22-20° C. with 16/8 hours light/darkness. […] Wild type (WT) plants and plants overexpressing […]) were used as comparisons. Plants were grown at 24-22° C. with 70% humidity and with 16/8 hours light/darkness. […] The sequence of the PCR product was confirmed followed by transformation of Top10 E. coli competent cells. […] Agrobacteria were transformed with the […]5 clone.

[4] = system: Nicotiana benthamiana leaves; experiment: Transient expression via Agrobacteria-infiltration, extent of viral movement; type: in vivo; conditions: transient expression in Nicotiana benthamiana leaves
Description: (a) Schematics of PDLP5-m5, PDLP5-C, and PDLP5-2C mutants as created by overlapping PCR. (b) Transient expression of mutants in Nicotiana benthamiana leaves.
We also created mutants altering just two cysteines (“CC”, residues 288 and 289 of the C-terminal tail region) or a single cysteine (“C”, residue 298 of the C-terminal tail region) residues to A1a. The phenotypes of these partial mutants, as well as the PDLP5-OX, pldp5-1 and PDLP5-m5, were tested in transient expression in Nicotiana benthamiana leaves via Agrobacteria-infiltration, targeting the extent of viral movement for comparison.

Arabidopsis thaliana [5] = experiment: Root length and secondary root growth of PDLP5-m5 plants; type: in vivo; conditions: compared to wild-type plants
Description: The sequence of the PCR product was confirmed followed by transformation of Top10 E. coli competent cells. After sequence confirmation, the PDLP5-m5 sequence was transferred from the entry clone pEN-PDLP5-m5 into a binary vector (pGWB) including the constitutive 35S promoter by a Gateway reaction; more particularly, the sequence was cloned into an expression vector under the control of a constitutive 35S promoter to create a pGWB-35S:PDLP5-m5 clone. Agrobacteria were transformed with the pGWB-35S:PDLP5-m5 clone. More particularly, pGWB was introduced into Agrobacteria strain GV3101, and the transformed Agrobacteria were used to transform 4-week-old Arabidopsis thaliana Col-0 plants using floral dipping to produce transgenic plants expressing PDLP5-m5. Transgenic Arabidopsis plants expressing the PDLP5-m5 mutant (pro35S:PDLP5-m5) were made in Col-0 WT and pldp5-1 (severe knockdown) backgrounds.

`O=C(O)Cc1cccc2ccccc12` [NAA, 1-napthalene acetic acid] was tested, and the “PDLP5 transcript level in the roots (RT-PCR)” value (PDLP5) was “Induction of PDLP5 at the transcript level” and the “PDLP5pro:GUS expression in roots” value (PDLP5pro:GUS) was “occurred in the cells above the ectopically induced LRP”.

With `CC/C=C\C[C@H]1C(=O)CC[C@@H]1CC(=O)O` [JA] the “PDLP5pro:GUS expression in roots” value (PDLP5pro:GUS) was “did not have any effect”.

For cytokinin, the “PDLP5pro:GUS expression in roots” value (PDLP5pro:GUS) was “did not have any effect”.

For `CC1=CC(=O)CC(C)(C)C1(O)/C=C/C(C)=C\C(=O)O` (centres unmarked) [ABA], the “PDLP5pro:GUS expression in roots” value (PDLP5pro:GUS) was “did not have any effect”.

With `O=C(O)c1ccccc1O` [SA, salicylic acid] the “PDLP5 transcript level in the roots (RT-PCR)” value (PDLP5) was “Induction of PDLP5 at the transcript level” and the “PDLP5pro:GUS expression in roots” value (PDLP5pro:GUS) was “induces PDLP5pro:GUS expression in roots”.

B1: PDLP5-m5: PDLP5 mutant (SEQ ID NO:6) with three Cysteine→Alanine mutations at 288, 289, 298; expressed in transgenic plants under 35S promoter (protein)
chain: MIKTKTTSLLCFLLTAVILMNPSSSSPTDNYIYAVCSPAKFSPSSGYETNLNSLLSSFVTSTAQTRYANFTVPTGKPEPTVTVYGIYQCRGDLDPTACSTCVSSAVAQVGALCSNSYSGFLQMENCLIRYDNKSFLGVQDKTLILNKCGQPMEFNDQDALTKASDVIGSLGTGDGSYRTGGNGNVQGVAQCSGDLSTSQCQDCLSDAIGRLKSDCGMAQGGYVYLSKCYARFSVGGSHARQTPGPNFGHEGEKGNKDDNGVGKTLAIIIGIVTLIILLVVFLAFVGKAARKLQDEKWAK
modifications: modified PDLP5 protein
notes: expressed in transgenic plants under 35S promoter
With B1 the “resistance to cold conditions” value (Arabidopsis thaliana [1]) was “improved resistance”, the outcome upon rewatering (Arabidopsis thaliana [2]; rewatering after 2 weeks water withdrawal) was “continued to grow upon rewatering” and the bolting (Arabidopsis thaliana [2]; versus plants overexpressing PDLP5 and wild type plants) was “bolt faster”. For the same molecule, the “response to water withdrawal” value (Arabidopsis thaliana [2]; water withdrawn for 2 weeks) was “resistant to water withdrawal”, the rosette diameter (Arabidopsis thaliana [3]; 22-20° C., 16/8 hours light/darkness) was “relative rosette diameter is maintained” and the seed yield (Arabidopsis thaliana [3]; compared to wild type and pdlp5-1) was “normal to better seed yield”. The flowering (Arabidopsis thaliana [3]; compared with WT and PDLP5-OX) was “early flowering”, the vegetative growth (Arabidopsis thaliana [3]; compared with WT, PDLP5-OX, pdlp5-1) was “fast vegetative growth” and the “extent of viral movement” value [4] was “more extensive viral movement”. The “total secondary root growth” value (Arabidopsis thaliana [5]) was “increase in total secondary root growth” and the “increase in root length” value (Arabidopsis thaliana [5]; 10 days post germination) was 30-40%.

B2: PDLP5-CC: PDLP5 mutant altering two cysteines (residues 288 and 289 of the C-terminal tail) to Ala (protein, UniProt Q8GUJ2 26-299, looked up, variant C288A C289A)
Plasmodesmata-located protein …: SPTDNYIYAVCSPAKFSPSSGYETNLNSLLSSFVTSTAQTRYANFTVPTGKPEPTVTVYGIYQCRGDLDPTACSTCVSSAVAQVGALCSNSYSGFLQMENCLIRYDNKSFLGVQDKTLILNKCGQPMEFNDQDALTKASDVIGSLGTGDGSYRTGGNGNVQGVAQCSGDLSTSQCQDCLSDAIGRLKSDCGMAQGGYVYLSKCYARFSVGGSHARQTPGPNFGHEGEKGNKDDNGVGKTLAIIIGIVTLIILLVVFLAFVGKAARKLQDEKWCK
With B2 the “extent of viral movement” value [4] was “did not show PDLP5-m5 effect”.

B3: PDLP5-C: PDLP5 mutant altering a single cysteine (residue 298 of the C-terminal tail) to Ala (protein, UniProt Q8GUJ2 26-299, looked up, variant C298A)
Plasmodesmata-located protein …: SPTDNYIYAVCSPAKFSPSSGYETNLNSLLSSFVTSTAQTRYANFTVPTGKPEPTVTVYGIYQCRGDLDPTACSTCVSSAVAQVGALCSNSYSGFLQMENCLIRYDNKSFLGVQDKTLILNKCGQPMEFNDQDALTKASDVIGSLGTGDGSYRTGGNGNVQGVAQCSGDLSTSQCQDCLSDAIGRLKSDCGMAQGGYVYLSKCYARFSVGGSHARQTPGPNFGHEGEKGNKDDNGVGKTLAIIIGIVTLIILLVVFLAFVGKCCRKLQDEKWAK
B3 was tested, and the “extent of viral movement” value [4] was “did not show PDLP5-m5 effect”.

— patent publication US20160272995A1, “MANIPULATION OF PLASMODESMAL CONNECTIVITY TO IMPROVE PLANT YIELD AND FITNESS” (UNIVERSITY OF DELAWARE, priority 2013, published 2016)
